Target: extra-cellular receptor for interleukin 34 (Homo sapiens, UniProt P07333)
Test: NPOI flow cell label-free binding with fraction collection (AC-MS)
Description: The first embodiment is sketched in FIG. 3. The NPOI flow cell instrument is used together with a fraction collector. This fraction collector could simply be a collection vessel of some sort. Initially capture molecule is placed on the porous silicon chip using a typical flow cell procedure. A carboxyl chip shown at 214 in FIG. 2, used for amino coupling, is used. This contains both a sample and reference channel 220 and 221. Using the AutoPrep 200 and two 6-port, 2-position injection valves, one for the sample 210 and one for the reference 211, solutions are introduced to the flow cell. Initially the chip is activated using water as running buffer, pumped by two separate pumps one for sample 212 and one for reference 213, at 8 μL/min. A solution of 200 mM, 1-ethyl-3-(3-dimethylaminopropyl) carbodiimide (EDC) and 50 mM sufo N-hydroxysuccinimide (sNHS) is used to activate the chip for 8 minutes. Then a solution of 20 μg/mL capture molecule is introduced in pH 5.0, 40 mM acetate buffer (1-1,000 μg/mL concentration may also be used). […] The chip is now ready for binding. […]
A specific example of such an approach is shown in FIG. 8 which is a print of a monitor display showing Mascot Search Results. […] The resulting data was analyzed using Mascot and a customized human protein database (810) show the successful identification of IL34.

Chain of extra-cellular receptor for interleukin 34 (P07333 20-517 limits assumed): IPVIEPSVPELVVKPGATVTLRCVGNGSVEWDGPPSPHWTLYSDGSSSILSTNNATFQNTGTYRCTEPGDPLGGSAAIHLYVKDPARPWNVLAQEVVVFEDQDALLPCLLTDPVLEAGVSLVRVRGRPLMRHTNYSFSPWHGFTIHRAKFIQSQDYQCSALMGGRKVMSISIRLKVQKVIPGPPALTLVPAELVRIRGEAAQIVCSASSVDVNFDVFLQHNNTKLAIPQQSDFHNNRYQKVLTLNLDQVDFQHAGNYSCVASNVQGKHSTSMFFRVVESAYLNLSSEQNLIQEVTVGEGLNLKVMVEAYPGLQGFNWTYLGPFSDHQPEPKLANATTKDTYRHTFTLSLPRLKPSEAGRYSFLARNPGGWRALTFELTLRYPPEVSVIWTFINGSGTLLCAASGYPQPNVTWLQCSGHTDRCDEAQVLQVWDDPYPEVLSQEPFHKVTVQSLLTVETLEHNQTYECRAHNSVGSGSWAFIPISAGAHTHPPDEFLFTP

B1: Interleukin 34 (protein, UniProt Q6ZMJ4 21-242, looked up)
Interleukin-34: NEPLEMWPLTQNEECTVTGFLRDKLQYRSRLQYMKHYFPINYKISVPYEGVFRIANVTRLQRAQVSERELRYLWVLVSLSATESVQDVLLEGHPSWKYLQEVETLLLNVQQGLTDVEVSPKVESVLSLLNAPGPNLKLVRPKALLDNCFRVMELLYCSCCKQSSVLNWQDCEVPSPQSCSPEPSLQYAATQLYPPPPWSPSSPPHSTGSVRPVRAQGEGLLP
notes: Interleukin 34 (the analyte) doped into spent cell culture media
IL34 100 ng/mL in spent cell culture media, 50 μL, between 0 and 240 seconds, receptor immobilized at 100 μg/mL
  change in OPD (label-free binding signal): 0.7 nm
Almost complete capture of the material introduced
  amount captured on chip corresponding to OPD change: 5 ng

— patent US20100227414A1, “Affinity capture mass spectroscopy with a porous silicon biosensor” (Trex Enterprises Corp., priority 2009, published 2010)
